Laboratory results from publication doi:10.1101/491043.

Biological target: M. tuberculosis ClpX (M. tuberculosis) (UniProt P9WPB9)
Test: SPR

| Substance | Kd [nM] | fold reduction in binding against σ^D/RsdA [fold] |
| --- | --- | --- |
| σ^M/RsmA complex | 133 | – |
| σ^L/RslA complex (from UniProt H8EXN1;H8EXN2) | – | 10 |
| σ^D/RsdA complex (from UniProt P9WGG8;H8EZ77) | 14.5 | – |
| σ^K/RskA complex (from UniProt A5TZH1;A5TZH0) | 164 | – |
